Test results taken from US20260167699A1 (Chugai, published 2026).

Biological target: T1, FcγRIIIa (human, UniProt P08637 17-208)
T1 construct: extracellular domain; also called 3a; FcγRIIIa extracellular domain
Experiment: SPR (Biacore);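 further: antibody variants captured on an SPR sensor chip, with FcγRIIIa passed over as analyte in HBS-EP+ buffer at 25 °C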

T1 sequence (P08637 other isoform, or with tags, fused parts or gaps): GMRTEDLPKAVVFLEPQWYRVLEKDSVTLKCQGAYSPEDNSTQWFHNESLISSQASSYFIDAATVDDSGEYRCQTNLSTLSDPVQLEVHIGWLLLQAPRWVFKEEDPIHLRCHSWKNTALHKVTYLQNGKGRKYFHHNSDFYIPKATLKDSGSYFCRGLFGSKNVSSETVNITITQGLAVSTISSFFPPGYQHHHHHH

| Binder | He/Con 3a |
| --- | --- |
| GpH7-A5/GpH7-B3 variant L234_15Y/GpL16-k0 (antibody, human IgG1, kappa, copies: 1 + 1 + 2) heavy 1: not shown heavy 2: not shown light: DIVMTQSPLSLPVTPGEPASISCQASESLVHSNRNTYLHWYLQKPGQSPQLLIYKVSNRFSGVPDRFSGSGSGTDFTLKISRVEAEDVGVYYCSQNTHVPPTFGQGTKVEIERTVAAPSVFIFPPSDEQLKSGTASVVCLLNNFYPREAKVQWKVDNALQSGNSQESVTEQDSKDSTYSLSSTLTLSKADYEKHKVYACEVTHQGLSSPVTKSFNRGEC | 126 % of GpH7-A5/GpH7-B3/GpL16-k0 |
| GpH7-A5/GpH7-B3 variant L234_16H/GpL16-k0 (antibody, human IgG1, kappa, copies: 1 + 1 + 2) heavy 1: not shown heavy 2: not shown light: DIVMTQSPLSLPVTPGEPASISCQASESLVHSNRNTYLHWYLQKPGQSPQLLIYKVSNRFSGVPDRFSGSGSGTDFTLKISRVEAEDVGVYYCSQNTHVPPTFGQGTKVEIERTVAAPSVFIFPPSDEQLKSGTASVVCLLNNFYPREAKVQWKVDNALQSGNSQESVTEQDSKDSTYSLSSTLTLSKADYEKHKVYACEVTHQGLSSPVTKSFNRGEC | 76.8 % of GpH7-A5/GpH7-B3/GpL16-k0 |
| GpH7-A5/GpH7-B3 variant L234_18N/GpL16-k0 (antibody, human IgG1, kappa, copies: 1 + 1 + 2) heavy 1: not shown heavy 2: not shown light: DIVMTQSPLSLPVTPGEPASISCQASESLVHSNRNTYLHWYLQKPGQSPQLLIYKVSNRFSGVPDRFSGSGSGTDFTLKISRVEAEDVGVYYCSQNTHVPPTFGQGTKVEIERTVAAPSVFIFPPSDEQLKSGTASVVCLLNNFYPREAKVQWKVDNALQSGNSQESVTEQDSKDSTYSLSSTLTLSKADYEKHKVYACEVTHQGLSSPVTKSFNRGEC | 88.2 % of GpH7-A5/GpH7-B3/GpL16-k0 |
| GpH7-A5/GpH7-B3 variant L234_19Q/GpL16-k0 (antibody, human IgG1, kappa, copies: 1 + 1 + 2) heavy 1: not shown heavy 2: not shown light: DIVMTQSPLSLPVTPGEPASISCQASESLVHSNRNTYLHWYLQKPGQSPQLLIYKVSNRFSGVPDRFSGSGSGTDFTLKISRVEAEDVGVYYCSQNTHVPPTFGQGTKVEIERTVAAPSVFIFPPSDEQLKSGTASVVCLLNNFYPREAKVQWKVDNALQSGNSQESVTEQDSKDSTYSLSSTLTLSKADYEKHKVYACEVTHQGLSSPVTKSFNRGEC | 77.1 % of GpH7-A5/GpH7-B3/GpL16-k0 |
| GpH7-A5/GpH7-B3 variant L234_20W/GpL16-k0 (antibody, human IgG1, kappa, copies: 1 + 1 + 2) heavy 1: not shown heavy 2: not shown light: DIVMTQSPLSLPVTPGEPASISCQASESLVHSNRNTYLHWYLQKPGQSPQLLIYKVSNRFSGVPDRFSGSGSGTDFTLKISRVEAEDVGVYYCSQNTHVPPTFGQGTKVEIERTVAAPSVFIFPPSDEQLKSGTASVVCLLNNFYPREAKVQWKVDNALQSGNSQESVTEQDSKDSTYSLSSTLTLSKADYEKHKVYACEVTHQGLSSPVTKSFNRGEC | 103 % of GpH7-A5/GpH7-B3/GpL16-k0 |
| GpH7-A5/GpH7-B3 variant L235_01G/GpL16-k0 (antibody, human IgG1, kappa, copies: 1 + 1 + 2) heavy 1: not shown heavy 2: not shown light: DIVMTQSPLSLPVTPGEPASISCQASESLVHSNRNTYLHWYLQKPGQSPQLLIYKVSNRFSGVPDRFSGSGSGTDFTLKISRVEAEDVGVYYCSQNTHVPPTFGQGTKVEIERTVAAPSVFIFPPSDEQLKSGTASVVCLLNNFYPREAKVQWKVDNALQSGNSQESVTEQDSKDSTYSLSSTLTLSKADYEKHKVYACEVTHQGLSSPVTKSFNRGEC | 56.7 % of GpH7-A5/GpH7-B3/GpL16-k0 |
| GpH7-A5/GpH7-B3 variant L235_02A/GpL16-k0 (antibody, human IgG1, kappa, copies: 1 + 1 + 2) heavy 1: not shown heavy 2: not shown light: DIVMTQSPLSLPVTPGEPASISCQASESLVHSNRNTYLHWYLQKPGQSPQLLIYKVSNRFSGVPDRFSGSGSGTDFTLKISRVEAEDVGVYYCSQNTHVPPTFGQGTKVEIERTVAAPSVFIFPPSDEQLKSGTASVVCLLNNFYPREAKVQWKVDNALQSGNSQESVTEQDSKDSTYSLSSTLTLSKADYEKHKVYACEVTHQGLSSPVTKSFNRGEC | 72 % of GpH7-A5/GpH7-B3/GpL16-k0 |
| GpH7-A5/GpH7-B3 variant L235_03V/GpL16-k0 (antibody, human IgG1, kappa, copies: 1 + 1 + 2) heavy 1: not shown heavy 2: not shown light: DIVMTQSPLSLPVTPGEPASISCQASESLVHSNRNTYLHWYLQKPGQSPQLLIYKVSNRFSGVPDRFSGSGSGTDFTLKISRVEAEDVGVYYCSQNTHVPPTFGQGTKVEIERTVAAPSVFIFPPSDEQLKSGTASVVCLLNNFYPREAKVQWKVDNALQSGNSQESVTEQDSKDSTYSLSSTLTLSKADYEKHKVYACEVTHQGLSSPVTKSFNRGEC | 94.6 % of GpH7-A5/GpH7-B3/GpL16-k0 |
| GpH7-A5/GpH7-B3 variant L235_04F/GpL16-k0 (antibody, human IgG1, kappa, copies: 1 + 1 + 2) heavy 1: not shown heavy 2: not shown light: DIVMTQSPLSLPVTPGEPASISCQASESLVHSNRNTYLHWYLQKPGQSPQLLIYKVSNRFSGVPDRFSGSGSGTDFTLKISRVEAEDVGVYYCSQNTHVPPTFGQGTKVEIERTVAAPSVFIFPPSDEQLKSGTASVVCLLNNFYPREAKVQWKVDNALQSGNSQESVTEQDSKDSTYSLSSTLTLSKADYEKHKVYACEVTHQGLSSPVTKSFNRGEC | 76.4 % of GpH7-A5/GpH7-B3/GpL16-k0 |
| GpH7-A5/GpH7-B3 variant L235_05P/GpL16-k0 (antibody, human IgG1, kappa, copies: 1 + 1 + 2) heavy 1: not shown heavy 2: not shown light: DIVMTQSPLSLPVTPGEPASISCQASESLVHSNRNTYLHWYLQKPGQSPQLLIYKVSNRFSGVPDRFSGSGSGTDFTLKISRVEAEDVGVYYCSQNTHVPPTFGQGTKVEIERTVAAPSVFIFPPSDEQLKSGTASVVCLLNNFYPREAKVQWKVDNALQSGNSQESVTEQDSKDSTYSLSSTLTLSKADYEKHKVYACEVTHQGLSSPVTKSFNRGEC | 68.6 % of GpH7-A5/GpH7-B3/GpL16-k0 |
| GpH7-A5/GpH7-B3 variant L235_06M/GpL16-k0 (antibody, human IgG1, kappa, copies: 1 + 1 + 2) heavy 1: not shown heavy 2: not shown light: DIVMTQSPLSLPVTPGEPASISCQASESLVHSNRNTYLHWYLQKPGQSPQLLIYKVSNRFSGVPDRFSGSGSGTDFTLKISRVEAEDVGVYYCSQNTHVPPTFGQGTKVEIERTVAAPSVFIFPPSDEQLKSGTASVVCLLNNFYPREAKVQWKVDNALQSGNSQESVTEQDSKDSTYSLSSTLTLSKADYEKHKVYACEVTHQGLSSPVTKSFNRGEC | 75.6 % of GpH7-A5/GpH7-B3/GpL16-k0 |
| GpH7-A5/GpH7-B3 variant L235_07I/GpL16-k0 (antibody, human IgG1, kappa, copies: 1 + 1 + 2) heavy 1: not shown heavy 2: not shown light: DIVMTQSPLSLPVTPGEPASISCQASESLVHSNRNTYLHWYLQKPGQSPQLLIYKVSNRFSGVPDRFSGSGSGTDFTLKISRVEAEDVGVYYCSQNTHVPPTFGQGTKVEIERTVAAPSVFIFPPSDEQLKSGTASVVCLLNNFYPREAKVQWKVDNALQSGNSQESVTEQDSKDSTYSLSSTLTLSKADYEKHKVYACEVTHQGLSSPVTKSFNRGEC | 92.8 % of GpH7-A5/GpH7-B3/GpL16-k0 |
| GpH7-A5/GpH7-B3 variant L235_09D/GpL16-k0 (antibody, human IgG1, kappa, copies: 1 + 1 + 2) heavy 1: not shown heavy 2: not shown light: DIVMTQSPLSLPVTPGEPASISCQASESLVHSNRNTYLHWYLQKPGQSPQLLIYKVSNRFSGVPDRFSGSGSGTDFTLKISRVEAEDVGVYYCSQNTHVPPTFGQGTKVEIERTVAAPSVFIFPPSDEQLKSGTASVVCLLNNFYPREAKVQWKVDNALQSGNSQESVTEQDSKDSTYSLSSTLTLSKADYEKHKVYACEVTHQGLSSPVTKSFNRGEC | 88.5 % of GpH7-A5/GpH7-B3/GpL16-k0 |
| GpH7-A5/GpH7-B3 variant L235_10E/GpL16-k0 (antibody, human IgG1, kappa, copies: 1 + 1 + 2) heavy 1: not shown heavy 2: not shown light: DIVMTQSPLSLPVTPGEPASISCQASESLVHSNRNTYLHWYLQKPGQSPQLLIYKVSNRFSGVPDRFSGSGSGTDFTLKISRVEAEDVGVYYCSQNTHVPPTFGQGTKVEIERTVAAPSVFIFPPSDEQLKSGTASVVCLLNNFYPREAKVQWKVDNALQSGNSQESVTEQDSKDSTYSLSSTLTLSKADYEKHKVYACEVTHQGLSSPVTKSFNRGEC | 85.6 % of GpH7-A5/GpH7-B3/GpL16-k0 |
| GpH7-A5/GpH7-B3 variant L235_13S/GpL16-k0 (antibody, human IgG1, kappa, copies: 1 + 1 + 2) heavy 1: not shown heavy 2: not shown light: DIVMTQSPLSLPVTPGEPASISCQASESLVHSNRNTYLHWYLQKPGQSPQLLIYKVSNRFSGVPDRFSGSGSGTDFTLKISRVEAEDVGVYYCSQNTHVPPTFGQGTKVEIERTVAAPSVFIFPPSDEQLKSGTASVVCLLNNFYPREAKVQWKVDNALQSGNSQESVTEQDSKDSTYSLSSTLTLSKADYEKHKVYACEVTHQGLSSPVTKSFNRGEC | 67.2 % of GpH7-A5/GpH7-B3/GpL16-k0 |
| GpH7-A5/GpH7-B3 variant L235_14T/GpL16-k0 (antibody, human IgG1, kappa, copies: 1 + 1 + 2) heavy 1: not shown heavy 2: not shown light: DIVMTQSPLSLPVTPGEPASISCQASESLVHSNRNTYLHWYLQKPGQSPQLLIYKVSNRFSGVPDRFSGSGSGTDFTLKISRVEAEDVGVYYCSQNTHVPPTFGQGTKVEIERTVAAPSVFIFPPSDEQLKSGTASVVCLLNNFYPREAKVQWKVDNALQSGNSQESVTEQDSKDSTYSLSSTLTLSKADYEKHKVYACEVTHQGLSSPVTKSFNRGEC | 73.2 % of GpH7-A5/GpH7-B3/GpL16-k0 |
